We go through seven sequences from article PMC10302475.

The series addresses Sox6 HMG domain (human) (UniProt P35712). The series can be described thus: UV laser footprinting. To be noted: 10 mM Tris pH 7.4, 75 mM NaCl, 1 mM EDTA, 1 mM DTT, BSA (100 mg/mL [sic]), 0.01% NP40, 5% glycerol, 37 C, 50 nM DNA or nucleosome (Kdapp is not true Kd) ….

Values joined by “and” are separate entries in the source; they are usually repeats but may differ in a detail not shown here. Equal entries are not always repeated.

Chain of Sox6 HMG domain (human) (P35712 618-697): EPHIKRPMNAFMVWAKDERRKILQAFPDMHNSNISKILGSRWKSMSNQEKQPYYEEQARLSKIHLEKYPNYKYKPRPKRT

Sequence “GCATGATTCTTAAGACCGAGTTCATCCCTTATGTGATGGACCCTATACGCGGCCGCCATCAGAATCCCGGTGCCGAGGCCGCTCAATTGGTCGTAGACAGCTCTAGCACCGCTTAAACGCACGTACGCGCTGTCCCCCGCGTTTTAACCGCCAAGGGGATTACTCCGGACAATGGAGGCACGTGTCAGATATATACATCGATGTGCATGTATTGAACAGCGACCTTGCCGGTGCCAGTCGGATAGAATTCCGGAC (double strand) [601-SHL4 naked DNA]” came in with a K half of 180 nM. As for “GCATGATTCTTAAGACCGAGTTCATCCCTTATGTGATGGACCCTATACGCGGCCGCCATCAGAATCCCGGTGCCGAGGCCGCTCAATTGGTCGTAGACAGCTCTAGCACCGCTTAAACGCACGTACGCGCTGTCCCCCGCGTTTTAACCGCCAAGGGGATTACTCCGGACAATGGAGGCACGTGTCAGATATATACATCGATGTGCATGTATTGAACAGCGACCTTGCCGGTGCCAGTCGGATAGAATTCCGGAC (double strand) [601-SHL4 nucleosome]”, the K half (apparent Kd, SHL4 site) is 490 nM. In turn, “GCATGATTCTTAAGACCGAGTTCATCCCTTATGTGATGGACCCTATACGCGGCCGCCATCAGAATCCCGGTGCCGAGGCCGCTCAATTGGTCGTAGACAGCTCTAGCACCGCTTAAACGCACGTACGCGCTGTCCCCCGCGTTTTGGACAATGGAGGCATTACTCCCTAGTCTCCAGGCACGTGTCAGATATATACATCGATGTGCATGTATTGAACAGCGACCTTGCCGGTGCCAGTCGGATAGAATTCCGGAC (double strand) [601-SHL2 naked DNA]” showed a K half of 136 nM.

Consider “GCATGATTCTTAAGACCGAGTTCATCCCTTATGTGATGGACCCTATACGCGGCCGCCATCAGAATCCCGGTGCCGAGGCCGCTCAATTGGTCGTAGACAGCTCTAGCACCGCTTAAACGCACGTACGCGCTGTCCCCCGCGTTTTGGACAATGGAGGCATTACTCCCTAGTCTCCAGGCACGTGTCAGATATATACATCGATGTGCATGTATTGAACAGCGACCTTGCCGGTGCCAGTCGGATAGAATTCCGGAC (double strand) [601-SHL2 nucleosome]”, for which the K half (apparent Kd, SHL2 site) worked out at 374 nM. “GCATGATTCTTAAGACCGAGTTCATCCCTTATGTGATGGACCCTATACGCGGCCGCCATCAGAATCCCGGTGCCGAGGCCGCTCAATTGGTCGTAGACAGCTCTAGCACCGCTTAAACGCACGTAGGACAATGGAGGCGCGTTTTAACCGCCAAGGGGATTACTCCCTAGTCTCCAGGCACGTGTCAGATATATACATCGATGTGCATGTATTGAACAGCGACCTTGCCGGTGCCAGTCGGATAGAATTCCGGAC (double strand) [601-SHL0 naked DNA]”: the K half was 100 nM. As to “GCATGATTCTTAAGACCGAGTTCATCCCTTATGTGATGGACCCTATACGCGGCCGCCATCAGAATCCCGGTGCCGAGGCCGCTCAATTGGTCGTAGACAGCTCTAGCACCGCTTAAACGCACGTAGGACAATGGAGGCGCGTTTTGGACAATGGAGGCATTACTCCGGACAATGGAGGCACGTGTCAGATATATACATCGATGTGCATGTATTGAACAGCGACCTTGCCGGTGCCAGTCGGATAGAATTCCGGAC (double strand) [601-SHL024 naked DNA]”, the K half is 198 nM and 275 nM and 245 nM. Turning to “GCATGATTCTTAAGACCGAGTTCATCCCTTATGTGATGGACCCTATACGCGGCCGCCATCAGAATCCCGGTGCCGAGGCCGCTCAATTGGTCGTAGACAGCTCTAGCACCGCTTAAACGCACGTAGGACAATGGAGGCGCGTTTTGGACAATGGAGGCATTACTCCGGACAATGGAGGCACGTGTCAGATATATACATCGATGTGCATGTATTGAACAGCGACCTTGCCGGTGCCAGTCGGATAGAATTCCGGAC (double strand) [601-SHL024 nucleosome]”, the K half is, setting by setting: (apparent Kd, SHL2 site of 3x) 550 nM; (apparent Kd, SHL4 site of 3x) 680 nM.
